The record followed here is PMC10786891, “Massively parallel profiling of RNA-targeting CRISPR-Cas13d”.

T1: EsCas13d, nuclease-dead (Eubacterium siraeum, UniProt B0MS50, R295A;H300A;R849A;H854A)
T1 sequence: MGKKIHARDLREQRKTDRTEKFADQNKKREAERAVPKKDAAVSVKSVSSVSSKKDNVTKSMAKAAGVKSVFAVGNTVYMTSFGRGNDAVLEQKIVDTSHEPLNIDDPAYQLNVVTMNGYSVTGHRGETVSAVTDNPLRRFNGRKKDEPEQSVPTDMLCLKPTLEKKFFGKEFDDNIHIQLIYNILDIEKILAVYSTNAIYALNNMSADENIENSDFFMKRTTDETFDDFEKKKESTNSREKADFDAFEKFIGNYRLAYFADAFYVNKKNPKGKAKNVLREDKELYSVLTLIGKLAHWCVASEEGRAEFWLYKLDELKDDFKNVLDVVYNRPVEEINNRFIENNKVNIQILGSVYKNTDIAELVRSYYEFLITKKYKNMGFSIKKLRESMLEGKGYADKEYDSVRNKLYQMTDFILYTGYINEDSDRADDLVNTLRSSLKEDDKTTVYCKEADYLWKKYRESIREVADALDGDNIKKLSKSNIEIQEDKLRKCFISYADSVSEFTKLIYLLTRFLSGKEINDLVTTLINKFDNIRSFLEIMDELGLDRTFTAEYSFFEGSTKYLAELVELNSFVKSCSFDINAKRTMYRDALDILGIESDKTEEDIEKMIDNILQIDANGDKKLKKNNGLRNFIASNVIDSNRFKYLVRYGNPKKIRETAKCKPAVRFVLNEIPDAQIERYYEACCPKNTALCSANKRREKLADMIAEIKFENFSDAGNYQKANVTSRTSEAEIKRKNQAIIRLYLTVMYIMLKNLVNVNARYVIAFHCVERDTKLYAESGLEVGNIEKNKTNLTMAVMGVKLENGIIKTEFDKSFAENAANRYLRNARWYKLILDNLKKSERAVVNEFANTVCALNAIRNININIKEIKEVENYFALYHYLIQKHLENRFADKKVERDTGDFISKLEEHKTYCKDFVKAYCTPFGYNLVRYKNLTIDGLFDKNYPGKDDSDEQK

B1: target 1 U8G,C21A (mixed)
RNA 1: CACCCGUGCAAAAAUGCAGGGGUCUAAAACUGAGCGGAUAACCUCUCUAUGG
RNA 2: GGGAAUGGAUCCACAUCUACGAAUUCGUACAAUAGAGAGGUUAGCCGCUCACCGAGAUCGGAAGAGCACACGU
B2: target 1 insA 3' of 21,insG 3' of 6 (mixed)
RNA 1: CACCCGUGCAAAAAUGCAGGGGUCUAAAACUGAGCGGAUAACCUCUCUAUGG
RNA 2: GGGAAUGGAUCCACAUCUACGAAUUCGUACCAAUAGAGAGGUUAUCCGGCUCACCGAGAUCGGAAGAGCACACGU
B3: target 1 U8G,A16G (mixed)
RNA 1: CACCCGUGCAAAAAUGCAGGGGUCUAAAACUGAGCGGAUAACCUCUCUAUGG
RNA 2: GGGAAUGGAUCCACAUCUACGAAUUCGUACCAUAGGGAGGUUAGCCGCUCACCGAGAUCGGAAGAGCACACGU
B4: target 1 insA 3' of 15,insA 3' of 7 (mixed)
RNA 1: CACCCGUGCAAAAAUGCAGGGGUCUAAAACUGAGCGGAUAACCUCUCUAUGG
RNA 2: GGGAAUGGAUCCACAUCUACGAAUUCGUACCAUAGAGAAGGUUAUCACGCUCACCGAGAUCGGAAGAGCACACGU
B5: target 1 insC 3' of 18,insC 3' of 9 (mixed)
RNA 1: CACCCGUGCAAAAAUGCAGGGGUCUAAAACUGAGCGGAUAACCUCUCUAUGG
RNA 2: GGGAAUGGAUCCACAUCUACGAAUUCGUACCAUACGAGAGGUUACUCCGCUCACCGAGAUCGGAAGAGCACACGU
B6: target 1 insA 3' of 19,insG 3' of 9 (mixed)
RNA 1: CACCCGUGCAAAAAUGCAGGGGUCUAAAACUGAGCGGAUAACCUCUCUAUGG
RNA 2: GGGAAUGGAUCCACAUCUACGAAUUCGUACCAUAAGAGAGGUUAGUCCGCUCACCGAGAUCGGAAGAGCACACGU
B7: target 1 A16C,U19C (mixed)
RNA 1: CACCCGUGCAAAAAUGCAGGGGUCUAAAACUGAGCGGAUAACCUCUCUAUGG
RNA 2: GGGAAUGGAUCCACAUCUACGAAUUCGUACCACAGCGAGGUUAUCCGCUCACCGAGAUCGGAAGAGCACACGU
B8: target 1 insA 3' of 17,insU 3' of 16 (mixed)
RNA 1: CACCCGUGCAAAAAUGCAGGGGUCUAAAACUGAGCGGAUAACCUCUCUAUGG
RNA 2: GGGAAUGGAUCCACAUCUACGAAUUCGUACCAUAGAAUGAGGUUAUCCGCUCACCGAGAUCGGAAGAGCACACGU
B9: target 1 G15U,C22A (mixed)
RNA 1: CACCCGUGCAAAAAUGCAGGGGUCUAAAACUGAGCGGAUAACCUCUCUAUGG
RNA 2: GGGAAUGGAUCCACAUCUACGAAUUCGUAACAUAGAUAGGUUAUCCGCUCACCGAGAUCGGAAGAGCACACGU
B10: target 1 U11C,C22U (mixed)
RNA 1: CACCCGUGCAAAAAUGCAGGGGUCUAAAACUGAGCGGAUAACCUCUCUAUGG
RNA 2: GGGAAUGGAUCCACAUCUACGAAUUCGUAUCAUAGAGAGGCUAUCCGCUCACCGAGAUCGGAAGAGCACACGU
B11: target 1 insA 3' of 21,insA 3' of 13 (mixed)
RNA 1: CACCCGUGCAAAAAUGCAGGGGUCUAAAACUGAGCGGAUAACCUCUCUAUGG
RNA 2: GGGAAUGGAUCCACAUCUACGAAUUCGUACCAAUAGAGAGAGUUAUCCGCUCACCGAGAUCGGAAGAGCACACGU
B12: target 1 insC 3' of 11,insA 3' of 10 (mixed)
RNA 1: CACCCGUGCAAAAAUGCAGGGGUCUAAAACUGAGCGGAUAACCUCUCUAUGG
RNA 2: GGGAAUGGAUCCACAUCUACGAAUUCGUACCAUAGAGAGGUCUAAUCCGCUCACCGAGAUCGGAAGAGCACACGU
B13: target 1 insA 3' of 10,insU 3' of 9 (mixed)
RNA 1: CACCCGUGCAAAAAUGCAGGGGUCUAAAACUGAGCGGAUAACCUCUCUAUGG
RNA 2: GGGAAUGGAUCCACAUCUACGAAUUCGUACCAUAGAGAGGUUAAUUCCGCUCACCGAGAUCGGAAGAGCACACGU
B14: target 1 U11A,C21A (mixed)
RNA 1: CACCCGUGCAAAAAUGCAGGGGUCUAAAACUGAGCGGAUAACCUCUCUAUGG
RNA 2: GGGAAUGGAUCCACAUCUACGAAUUCGUACAAUAGAGAGGAUAUCCGCUCACCGAGAUCGGAAGAGCACACGU
B15: target 1 insU 3' of 13,insC 3' of 1 (mixed)
RNA 1: CACCCGUGCAAAAAUGCAGGGGUCUAAAACUGAGCGGAUAACCUCUCUAUGG
RNA 2: GGGAAUGGAUCCACAUCUACGAAUUCGUACCAUAGAGAGUGUUAUCCGCUCACCCGAGAUCGGAAGAGCACACGU
B16: target 1 insC 3' of 13,insG 3' of 7 (mixed)
RNA 1: CACCCGUGCAAAAAUGCAGGGGUCUAAAACUGAGCGGAUAACCUCUCUAUGG
RNA 2: GGGAAUGGAUCCACAUCUACGAAUUCGUACCAUAGAGAGCGUUAUCGCGCUCACCGAGAUCGGAAGAGCACACGU
B17: target 1 C2A,U11A (mixed)
RNA 1: CACCCGUGCAAAAAUGCAGGGGUCUAAAACUGAGCGGAUAACCUCUCUAUGG
RNA 2: GGGAAUGGAUCCACAUCUACGAAUUCGUACCAUAGAGAGGAUAUCCGCUAACCGAGAUCGGAAGAGCACACGU
B18: target 1 insC 3' of 20,insG 3' of 7 (mixed)
RNA 1: CACCCGUGCAAAAAUGCAGGGGUCUAAAACUGAGCGGAUAACCUCUCUAUGG
RNA 2: GGGAAUGGAUCCACAUCUACGAAUUCGUACCACUAGAGAGGUUAUCGCGCUCACCGAGAUCGGAAGAGCACACGU
B19: target 1 insC 3' of 10,insG 3' of 4 (mixed)
RNA 1: CACCCGUGCAAAAAUGCAGGGGUCUAAAACUGAGCGGAUAACCUCUCUAUGG
RNA 2: GGGAAUGGAUCCACAUCUACGAAUUCGUACCAUAGAGAGGUUCAUCCGCGUCACCGAGAUCGGAAGAGCACACGU
B20: target 1 insU 3' of 13,insG 3' of 1 (mixed)
RNA 1: CACCCGUGCAAAAAUGCAGGGGUCUAAAACUGAGCGGAUAACCUCUCUAUGG
RNA 2: GGGAAUGGAUCCACAUCUACGAAUUCGUACCAUAGAGAGUGUUAUCCGCUCAGCCGAGAUCGGAAGAGCACACGU
B21: target 1 A1U (mixed)
RNA 1: CACCCGUGCAAAAAUGCAGGGGUCUAAAACUGAGCGGAUAACCUCUCUAUGG
RNA 2: GGGAAUGGAUCCACAUCUACGAAUUCGUACCAUAGAGAGGUUAUCCGCUCUCCGAGAUCGGAAGAGCACACGU
B22: target 1 insU 3' of 21,insC 3' of 11 (mixed)
RNA 1: CACCCGUGCAAAAAUGCAGGGGUCUAAAACUGAGCGGAUAACCUCUCUAUGG
RNA 2: GGGAAUGGAUCCACAUCUACGAAUUCGUACCUAUAGAGAGGUCUAUCCGCUCACCGAGAUCGGAAGAGCACACGU
B23: target 1 insA 3' of 22,insG 3' of 10 (mixed)
RNA 1: CACCCGUGCAAAAAUGCAGGGGUCUAAAACUGAGCGGAUAACCUCUCUAUGG
RNA 2: GGGAAUGGAUCCACAUCUACGAAUUCGUACACAUAGAGAGGUUGAUCCGCUCACCGAGAUCGGAAGAGCACACGU
B24: target 1 insU 3' of 15,insU 3' of 15 (mixed)
RNA 1: CACCCGUGCAAAAAUGCAGGGGUCUAAAACUGAGCGGAUAACCUCUCUAUGG
RNA 2: GGGAAUGGAUCCACAUCUACGAAUUCGUACCAUAGAGUUAGGUUAUCCGCUCACCGAGAUCGGAAGAGCACACGU
B25: target 1 insC 3' of 15,insA 3' of 8 (mixed)
RNA 1: CACCCGUGCAAAAAUGCAGGGGUCUAAAACUGAGCGGAUAACCUCUCUAUGG
RNA 2: GGGAAUGGAUCCACAUCUACGAAUUCGUACCAUAGAGCAGGUUAUACCGCUCACCGAGAUCGGAAGAGCACACGU
B26: target 1 insU 3' of 13,insA 3' of 2 (mixed)
RNA 1: CACCCGUGCAAAAAUGCAGGGGUCUAAAACUGAGCGGAUAACCUCUCUAUGG
RNA 2: GGGAAUGGAUCCACAUCUACGAAUUCGUACCAUAGAGAGUGUUAUCCGCUCAACCGAGAUCGGAAGAGCACACGU
B27: target 1 insA 3' of 15,insU 3' of 13 (mixed)
RNA 1: CACCCGUGCAAAAAUGCAGGGGUCUAAAACUGAGCGGAUAACCUCUCUAUGG
RNA 2: GGGAAUGGAUCCACAUCUACGAAUUCGUACCAUAGAGAAGUGUUAUCCGCUCACCGAGAUCGGAAGAGCACACGU

This series has as its target T1, EsCas13d, nuclease-dead. Nature of the series: crRNA (strand 1, pre-loaded); Mg2+; 40 mM Tris-HCl pH 7.5, 150 mM NaCl, 6 mM MgCl2, 1 mM DTT, 0.1% Tween-20, 0.2 mg/ml BSA; 25 C; 10 min per concentration, then washed. Particulars: tags: His6-TwinStrep-SUMO cleaved; N-terminal SNAP kept (SNAP-Surface 488); label: 3' end held by stalled T7 RNA polymerase.
As to B1, binding was characterised by a dissociation constant (Kd) of 54 ± 11 nM. As to B2, the Kd was determined as 22.1 ± 2.3 nM. B3 returned a Kd of 39.4 ± 3.5 nM. Molecule B4 gave a Kd of 4.65 ± 0.17 nM. Compared with the last molecule, the Kd is about 8.5-fold lower.

The molecule B5 had an equilibrium dissociation constant (Kd) of 58 ± 8 nM.

B6: the Kd turned out to be 37 ± 4 nM. Against the preceding molecule, the Kd is about 1.6-fold lower. In the case of B7, the dissociation constant (Kd) came to 94 ± 21 nM.

Turning to B8, the Kd stood at 38 ± 8 nM. The molecule B9 registered a Kd of 40 ± 6 nM. B10: the Kd was 21.2 ± 1.7 nM. The molecule B11 showed a dissociation constant Kd of 11.7 ± 0.7 nM. For B12 the value was 30 ± 4 nM; for B13, 13.9 ± 0.5 nM; for B14, 64 ± 24 nM. The figure for B15 is 21 ± 4 nM; for B16 it is 16.1 ± 1 nM. With B17, the Kd came to 21.6 ± 1.4 nM. B18 came in with a Kd of 8.8 ± 0.4 nM.

Turning to B19, binding was characterised by a dissociation constant (Kd) of 8.6 ± 0.4 nM. In turn, B20 registered a Kd of 11.7 ± 1.7 nM. In the case of B21, the Kd worked out at 8.5 ± 0.6 nM. B22 showed a Kd of 81 ± 21 nM. This Kd lies about 9.5-fold higher than the previous one. For B23 the value was 55 ± 13 nM; for B24, 17.6 ± 1.2 nM; for B25, 20.1 ± 2.1 nM.

Consider B26, for which the Kd was determined as 16.2 ± 1.8 nM. As to B27, the affinity, expressed as Kd, was 19 ± 4 nM.

Broadly, the Kd is the constant that tells how readily two partners part at equilibrium. A high value points to weaker binding.
